This test has as its target N1-MPP (recombinant neuraminidase: N1 globular head domain from A/Michigan/45/2015 (H1N1) fused to the measles virus phosphoprotein tetramerization domain, with hexahistidine tag) (measles virus | influenza A virus A/Michigan/45/2015 (H1N1)). Briefly: SEC; […], pH 7.5, 0.4 mL/min, room temperature; […].

On to “N1-MPP (recombinant neuraminidase: N1 globular head domain from A/Michigan/45/2015 (H1N1) fused to the measles virus phosphoprotein tetramerization domain, with hexahistidine tag) (enzyme)”, for which the stoichiometry N was 4.

As usually defined, the stoichiometry N is a count of units in the complex or per binding partner.
